B1: pCART203 (enzyme)
chain: MDDYQRNATEAYAKEVPHQITSVWTKGVTPPEQFTQGEDVIHAPYLAHQGWYDITKAFDGKDNLLCGAATAGNMLHWWFDQNKTEIEAYLSKHPEKQKIIFNNQELFDLKAAIDTKDSQTNSQLFNYFRDKAFPNLSARQLGVMPDLVLDMFINGYYLNVFKTQSTDVNRPYQDKDKRGGIFDAVFTRGDQTTLLTARHDLKNKGLNDISTIIKQELTEGRALALSHTYANVSISHVINLWGADFNAEGNLEAIYVTDSDANASIGMKKYFVGINAHGHVAISAKKIEGENIGAQVLGLFTLSSGKDIWQKLSGGGHHHHHH
B2: pCART197 (enzyme)
chain: MDDYQRNATEAYAKEVPHQITSVWTKGVTPLTPEQFRYNNEDVIHAPYLANQGWYDITKAFDGKDNLLCGAATAGNMLHWWFDQNKTEIEAYLSKHPEKQKIIFRNQELFDLKEAIRTKDSQTNSQLFEYFRDKAFPYLSARQLGVMPDLVLDMFINGYYLNVFKTQSTDVKRPYQDKDKRGGIFDAVFTRGNQTTLLTARHDLKNKGLNDISTIIKEELTKGRALALSHTYANVSISHVINLWGADFNAEGNLEAIYVTDSDANASIGMKKYFVGINKHGHVAISAKKIEGENIGAQVLGLFTLSSGKDIWQKLNGGGHHHHHH
B3: pCART201 (enzyme)
chain: MSVWTKGVTPLTPEQFRYNNEDVIHAPYLAHQGWYDITKAFDGKDNLLCGAATAGNMLHWWFDQNKTEIEAYLSKHPEKQKIIFNNQELFDLKAAIDTKDSQTNSQLFNYFRDKAFPNLSARQLGVMPDLVLDMFINGYYLNVFKTQSTDVNRPYQDKDKRGGIFDAVFTRGDQTTLLTARHDLKNKGLNDISTIIKQELTEGRALALSHTYANVSISHVINLWGADFNAEGNLEAIYVTDSDANASIGMKKYFVGINAHGHVAISAKKIEGENIGAQVLGLFTLSSGKDIWQKLSGGGHHHHHH

Key:
[1] = target: denosumab (XGEVA); assay: cell-based or functional assay
[2] = target: rabbit anti-BSA (ACRIS, #R1048P); assay: cell-based or functional assay

Binder | IgG2 (denosumab) cleavage, SDS-PAGE titration: fold efficacy over IdeZ [1] [fold vs pCART144] | pCART124 ratio (fold change in potency relative to IdeS), ELISA-based potency assay [2]
B1 | ~3 | ~3.5 fold over IdeS
B2 |  | 8 fold over pCART124
B3 |  | 8 fold over pCART124
